Data published in US20130337438A1 (JAPAN HEALTH SCIENCES FOUNDATION, published 2013).

T1: HPV51 L1/L2-capsid (human papillomavirus type 51, UniProt P26539 1-468; P26536 1-504)
T1 construct: Capsid of co-expressed L1 and L2 from 293FT cells; The pseudovirus is the same capsid with a reporter plasmid; also called L1/L2-capsid of type 51; HPV51 pseudovirus
T1 sequence 1: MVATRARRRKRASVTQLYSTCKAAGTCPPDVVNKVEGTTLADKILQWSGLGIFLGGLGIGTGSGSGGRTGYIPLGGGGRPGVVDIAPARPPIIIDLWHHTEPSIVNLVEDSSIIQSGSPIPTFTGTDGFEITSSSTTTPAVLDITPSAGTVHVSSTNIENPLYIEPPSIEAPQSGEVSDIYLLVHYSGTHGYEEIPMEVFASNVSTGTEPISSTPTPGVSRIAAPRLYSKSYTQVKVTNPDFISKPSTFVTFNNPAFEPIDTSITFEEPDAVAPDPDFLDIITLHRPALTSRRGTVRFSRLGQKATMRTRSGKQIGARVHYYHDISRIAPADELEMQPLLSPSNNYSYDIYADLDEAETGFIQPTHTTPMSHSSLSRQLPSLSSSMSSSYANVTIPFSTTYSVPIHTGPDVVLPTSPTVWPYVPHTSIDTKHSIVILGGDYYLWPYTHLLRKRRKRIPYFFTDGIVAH
T1 sequence 2: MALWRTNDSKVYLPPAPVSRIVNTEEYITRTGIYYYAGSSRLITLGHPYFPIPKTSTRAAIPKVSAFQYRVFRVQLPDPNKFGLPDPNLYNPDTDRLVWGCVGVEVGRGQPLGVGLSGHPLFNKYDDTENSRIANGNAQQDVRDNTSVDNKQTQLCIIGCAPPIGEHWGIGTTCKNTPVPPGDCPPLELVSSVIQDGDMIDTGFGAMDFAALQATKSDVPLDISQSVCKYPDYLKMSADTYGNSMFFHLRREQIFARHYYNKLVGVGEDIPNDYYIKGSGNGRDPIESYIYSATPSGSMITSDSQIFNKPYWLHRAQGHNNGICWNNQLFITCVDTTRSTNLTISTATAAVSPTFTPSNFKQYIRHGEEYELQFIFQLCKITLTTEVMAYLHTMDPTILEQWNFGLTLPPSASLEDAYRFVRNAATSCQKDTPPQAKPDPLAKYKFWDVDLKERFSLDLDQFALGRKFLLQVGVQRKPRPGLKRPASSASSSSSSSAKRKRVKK

T2: HPV33 L1/L2-capsid (human papillomavirus type 33, UniProt P06418 1-467; P06416 1-499)
T2 construct: Capsid of co-expressed L1 and L2 from 293FT cells; The pseudovirus is the same capsid with a reporter plasmid; also called L1/L2-capsid of type 33; HPV33 pseudovirus
T2 sequence 1: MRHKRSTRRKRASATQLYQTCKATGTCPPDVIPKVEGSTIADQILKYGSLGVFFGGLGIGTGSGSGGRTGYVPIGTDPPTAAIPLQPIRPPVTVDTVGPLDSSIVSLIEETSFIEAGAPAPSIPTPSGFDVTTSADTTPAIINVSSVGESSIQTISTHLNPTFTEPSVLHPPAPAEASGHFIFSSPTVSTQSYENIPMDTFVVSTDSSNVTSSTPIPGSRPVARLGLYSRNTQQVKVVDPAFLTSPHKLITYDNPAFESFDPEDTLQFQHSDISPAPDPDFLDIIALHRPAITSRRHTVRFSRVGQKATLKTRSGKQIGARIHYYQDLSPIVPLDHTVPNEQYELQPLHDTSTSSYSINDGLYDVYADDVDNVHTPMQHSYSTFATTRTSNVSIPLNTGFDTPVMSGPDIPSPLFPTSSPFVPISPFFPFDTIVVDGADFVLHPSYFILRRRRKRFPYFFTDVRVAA
T2 sequence 2: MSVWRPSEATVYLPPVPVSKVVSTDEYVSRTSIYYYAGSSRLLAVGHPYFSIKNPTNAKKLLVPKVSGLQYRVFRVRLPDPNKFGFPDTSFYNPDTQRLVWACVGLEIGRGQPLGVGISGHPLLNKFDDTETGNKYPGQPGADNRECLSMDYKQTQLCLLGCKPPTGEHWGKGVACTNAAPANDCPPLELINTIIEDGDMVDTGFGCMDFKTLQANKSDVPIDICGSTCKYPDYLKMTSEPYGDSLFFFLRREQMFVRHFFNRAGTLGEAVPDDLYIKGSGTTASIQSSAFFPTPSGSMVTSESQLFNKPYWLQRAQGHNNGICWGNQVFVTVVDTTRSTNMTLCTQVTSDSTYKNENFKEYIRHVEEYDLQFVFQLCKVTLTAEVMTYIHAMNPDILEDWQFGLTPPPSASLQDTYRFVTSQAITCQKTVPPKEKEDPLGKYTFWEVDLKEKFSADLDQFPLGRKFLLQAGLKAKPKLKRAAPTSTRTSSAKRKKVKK


What was measured:
HPV51 L1/L2-capsid [1] = molecular target: T1, HPV51 L1/L2-capsid; assay: ELISA on immobilized L1/L2-capsid, purified antibody 250 ng/well
HPV33 L1/L2-capsid = molecular target: T2, HPV33 L1/L2-capsid; assay: as above
HPV51 L1/L2-capsid [2] = molecular target: T1, HPV51 L1/L2-capsid; assay: ELISA on immobilized L1/L2-capsid, ascites 1:100

Binder	binding result (HPV51 L1/L2-capsid [1])	binding result (HPV33 L1/L2-capsid)	binding result (HPV51 L1/L2-capsid [2])
monoclonal antibody 13B (antibody, V domains shown, Used as mouse ascites or as antibody purified from ascites; also called Mouse-Mouse hybridoma 13B (FERM BP-11304)) VH: DVQLQESGPGLVKPSQSLSLSCTVTGYSITSDSAWNWIRQFPGNKLEWMGYITFSGSTNYNPSLKSRLSITRDTSKNQFFLQLNSVTTEDTATYYCTGPFLDYWGQGTTLTVSS VL: DVVMTQTPLSLPVSLGDQATISCRSSLSLVLSNRITYLQWYLQKPGQSPKLLIYKVSNRFSGVPDRFSGSGSGTDFTLKISRVEAEDLGVYFCSQSSHFPWTFGGGTKLEIKR	binds	binds	–
monoclonal antibody 24B (antibody, V domains shown, Used as mouse ascites or as antibody purified from ascites; also called Mouse-Mouse hybridoma 24B (FERM BP-11305)) VH: EVQLQQSGTVLARPGASVKMSCKASVYSFPSNWMHWVKQRPGQGLEWIGAIYPGTGATRYNQKFKDKAKLTAVTSADTAYMELSSLTDEDSAVYYCTGYSLYWGQGTILTVSS VL: not shown	–	–	binds
